To fix the notation:
B1: VHH 2HFO19 (family 1) (VHH)
VHH: QVQLQESGGGLVQPGGSLRVSCAASGFPFSTVYMSWVRQAPGKGLEWVSGINNDGGVIDYADSVKGRFTISRDNAKNTLYLQLNSLKPEDTALYFCARGRSFVATLSSSLRGQGTQVTVSS
notes: also called Nb19
B2: VHH 2HFO42 (family 3) (VHH)
VHH: QVQLQESGGGLVQAGGSLRLSCAASGSGFSGMIMGWYRQVPGKQRELVATVTSHGTTNYADSVKGRFTISRDNAKNTVLLQMNSLKPEDTAVYYCNAHFPGIYWGKGTQVTVSS
notes: also called 2HF042; Nb42
B3: VHH 3MFR60 (family 10) (VHH)
VHH: QVQLQESGGGLVQAGGSLRVSCAASGIIFSMNGMGWFRQAPGKQRELVASITSGGSTKYADSVKGRFTISRDNAKNTVYLQMNSLKPEDTAVYYCNIQFGSRWSTYWGQGTQVTVSS

human FOLR1/2 chimera 5, sequence (P15328 other isoform, or with tags, fused parts or gaps mutant limits assumed): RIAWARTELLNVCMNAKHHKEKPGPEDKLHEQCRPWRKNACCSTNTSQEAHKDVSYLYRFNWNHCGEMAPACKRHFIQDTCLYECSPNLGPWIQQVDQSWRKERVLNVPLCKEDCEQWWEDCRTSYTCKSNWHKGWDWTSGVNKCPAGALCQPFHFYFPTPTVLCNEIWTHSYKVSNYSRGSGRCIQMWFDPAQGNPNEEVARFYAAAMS
T6 sequence (P35846 25-232 limits assumed): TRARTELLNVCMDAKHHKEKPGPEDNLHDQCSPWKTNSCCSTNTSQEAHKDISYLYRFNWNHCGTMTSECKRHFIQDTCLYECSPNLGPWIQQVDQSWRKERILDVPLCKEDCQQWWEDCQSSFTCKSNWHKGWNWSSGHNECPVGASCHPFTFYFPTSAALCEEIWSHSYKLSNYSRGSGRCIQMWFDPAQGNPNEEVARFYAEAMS
human FOLR1/2 chimera 2, sequence (P15328 other isoform, or with tags, fused parts or gaps mutant limits assumed): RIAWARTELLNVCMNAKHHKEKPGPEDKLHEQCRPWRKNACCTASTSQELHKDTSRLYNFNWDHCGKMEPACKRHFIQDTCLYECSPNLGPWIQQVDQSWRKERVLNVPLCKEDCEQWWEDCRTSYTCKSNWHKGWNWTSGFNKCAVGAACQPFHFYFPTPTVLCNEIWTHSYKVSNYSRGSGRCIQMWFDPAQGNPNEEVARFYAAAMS
T4 sequence (P15328 other isoform, or with tags, fused parts or gaps mutant limits assumed): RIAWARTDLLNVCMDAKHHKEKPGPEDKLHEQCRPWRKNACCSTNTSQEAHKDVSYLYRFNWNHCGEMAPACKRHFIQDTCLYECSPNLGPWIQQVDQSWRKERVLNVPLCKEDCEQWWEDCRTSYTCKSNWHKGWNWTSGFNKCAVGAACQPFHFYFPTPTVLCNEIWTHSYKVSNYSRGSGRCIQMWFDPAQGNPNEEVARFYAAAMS
T2 sequence (P15328 other isoform, or with tags, fused parts or gaps mutant limits assumed): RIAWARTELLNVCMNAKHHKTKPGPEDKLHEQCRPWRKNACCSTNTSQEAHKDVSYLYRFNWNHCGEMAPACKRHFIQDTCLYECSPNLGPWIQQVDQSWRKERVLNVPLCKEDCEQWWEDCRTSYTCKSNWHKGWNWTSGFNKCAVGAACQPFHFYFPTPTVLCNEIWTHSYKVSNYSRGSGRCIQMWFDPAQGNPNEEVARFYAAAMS
human FOLR1/2 chimera 3, sequence (P15328 other isoform, or with tags, fused parts or gaps mutant limits assumed): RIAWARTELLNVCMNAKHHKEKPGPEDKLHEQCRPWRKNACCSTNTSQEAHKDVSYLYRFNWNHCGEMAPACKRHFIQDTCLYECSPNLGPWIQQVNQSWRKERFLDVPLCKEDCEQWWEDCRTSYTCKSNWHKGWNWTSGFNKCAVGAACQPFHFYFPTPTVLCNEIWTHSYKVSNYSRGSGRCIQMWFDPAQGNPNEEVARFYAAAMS

The target in the first assay is T1, human FOLR1/2 chimera 7 (human, UniProt P15328 25-234).
T1 construct: also called Ch7
T1 sequence (P15328 other isoform, or with tags, fused parts or gaps mutant limits assumed): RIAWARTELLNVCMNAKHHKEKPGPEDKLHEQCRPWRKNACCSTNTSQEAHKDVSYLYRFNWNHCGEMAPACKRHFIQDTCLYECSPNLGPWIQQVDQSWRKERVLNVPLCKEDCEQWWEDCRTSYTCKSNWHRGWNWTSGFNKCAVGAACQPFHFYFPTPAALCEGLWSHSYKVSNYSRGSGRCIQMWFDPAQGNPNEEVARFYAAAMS
Nature of the assay: flow cytometry, transfected HEK293T cells. The protocol:
(§1) Chimera 1 SEQ ID No. 67) and 7 ^{∘}Ch7; SEQ ID No. 73) also contain an additional residue change at a separate location. […] HEK293T cells were transfected with hFOLR1, hFOLR2, one of the hFOLR1/2 chimeric constructs ^{∘}FIG. 2B) or single residue mutants ^{∘}FIG. 2C). Binding of VHHs 2HFO19, 2HFO42, 3MFR60, and a mouse anti-FOLR1 monoclonal antibody ^{∘}mAb) was detected using a mouse anti-His tag antibody for the VHHs followed by an anti-mouse-phycoerythrin antibody. All VHHs were tested at a concentration of 200 nM and untransfected cells were used as a negative control. The colors used for the VHHs represent the different CDR3 families; blue: family 1, green: family 3, grey: family 10.
(§2) To identify the exact region in which the VHHs bind to FRα, epitope mapping experiments were performed. Since the VHHs are able to bind human FRα, but not FRβ, we generated seven human FOLR1/2 chimeric constructs where regions of human FOLR1 were replaced by the corresponding human FOLR2 ^{∘}FRβ) regions ^{∘}FIG. 2A): chimera 1 SEQ ID No. 67), chimera 2 ^{∘}SEQ ID No. 68), chimera 3 ^{∘}SEQ ID No. 69), chimera 4 ^{∘}SEQ ID No. 70), chimera 5 ^{∘}SEQ ID No. 71), chimera 6 ^{∘}SEQ ID No. 72) and chimera 7 ^{∘}SEQ ID No. 73). Three additional chimera 1 constructs were made: chimera 1a ^{∘}replacing fragment 31-40; SEQ ID No. 74), chimera 1b ^{∘}replacing fragment 41-50; SEQ ID No. 75) and chimera 1c ^{∘}replacing fragment 51-64; SEQ ID NO. 76). The constructs were transiently transfected into HEK293T cells and dose-dependent binding of the VHHs to the wild-types FRα and FRβ ^{∘}WTs) or the chimeric constructs was assessed via flow cytometry via detection of the tag ^{∘}FIG. 2B). […] Different anti-FRα VHHs were able to bind to cell-expressed FRα-FRβ chimeras to a similar level as WT FRα, with the exception of chimera 4 ^{∘}SEQ ID No. 70) where the binding was completely abolished for all VHHs.
(In general: Flow cytometry measures light scatter and fluorescence of single cells or particles in a stream.)
Regarding B1, the binding result is given as “binds”.

As to B2, the binding result is listed as “binds”.

Consider B3, for which the binding result is listed as “binds”.

The next assay addresses T2, human FOLR1/2 chimera 1b (replacing fragment 41-50) (human, UniProt P15328 25-234).
T2 construct: Transiently expressed on HEK293T cells
Nature of the assay: flow cytometry, transfected HEK293T cells. On the procedure:
as §1, §2
As for B1, the binding result is “binds”.

Turning to B2, the binding result is “binds”.

B3: the binding result is “binds”.

A further assay concerns the target human FOLR1/2 chimera 2 (human, UniProt P15328 25-234). Description: flow cytometry, transfected HEK293T cells. On the procedure:
as §1, §2
Take B1: the binding result is “binds”.

On to B2, for which the binding result is “binds”.

Turning to B3, the binding result was “binds”.

The target of a further assay is human FOLR1/2 chimera 6 (human, UniProt P15328 25-234). Nature of the assay: flow cytometry, transfected HEK293T cells. On the procedure: as §1, §2
human FOLR1/2 chimera 6, sequence (P15328 other isoform, or with tags, fused parts or gaps mutant limits assumed): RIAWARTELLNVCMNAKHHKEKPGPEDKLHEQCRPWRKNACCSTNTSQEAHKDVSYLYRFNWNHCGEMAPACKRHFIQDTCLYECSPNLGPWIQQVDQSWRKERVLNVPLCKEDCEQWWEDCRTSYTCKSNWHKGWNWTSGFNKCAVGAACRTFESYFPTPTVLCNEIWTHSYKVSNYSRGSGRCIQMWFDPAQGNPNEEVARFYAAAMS
Take B1: the binding result was “binds”.

With B2, the binding result is on record as “binds”.

Regarding B3, the binding result was “binds”.

A further assay has as its target human FOLR1/2 chimera 3 (human, UniProt P15328 25-234). Nature of the assay: flow cytometry, transfected HEK293T cells. On the procedure: as §1, §2
On to B1, for which the binding result was “binds”.

Consider B2, for which the binding result was “binds”.

B3: the binding result is “binds”.

A further assay has as its target human FOLR1/2 chimera 5 (human, UniProt P15328 25-234). Description: flow cytometry, transfected HEK293T cells. On the procedure: as §1, §2
Consider B1, for which the binding result is “binds”.

Take B2: the binding result is on record as “binds”.

As for B3, the binding result is given as “binds”.

For the next assay, the target named is T3, human FOLR1/2 chimera 1 (human, UniProt P15328 25-234).
T3 construct: on transfected HEK293T cells
T3 sequence (P15328 other isoform, or with tags, fused parts or gaps mutant limits assumed): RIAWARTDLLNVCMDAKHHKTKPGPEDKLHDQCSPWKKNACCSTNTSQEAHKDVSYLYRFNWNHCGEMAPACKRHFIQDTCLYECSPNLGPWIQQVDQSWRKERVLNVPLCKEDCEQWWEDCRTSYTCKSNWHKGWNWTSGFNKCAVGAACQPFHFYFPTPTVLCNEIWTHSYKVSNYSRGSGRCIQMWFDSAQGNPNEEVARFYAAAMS
Nature of the assay: flow cytometry, transfected HEK293T cells. On the procedure:
as §1, §2
As to B1, the binding result was “binds”.

On to B2, for which the binding result is on record as “binds”.

For B3, the binding result is “binds”.

Another assay has as its target T4, human FOLR1/2 chimera 1a (replacing fragment 31-40) (human, UniProt P15328 25-234).
T4 construct: Transiently expressed on HEK293T cells
Nature of the assay: flow cytometry, transfected HEK293T cells. On the procedure:
as §1, §2
Regarding B1, the binding result is “binds”.

Consider B2, for which the binding result is given as “binds”.

Take B3: the binding result is given as “binds”.

Another assay deals with T5, human folate receptor alpha (hFRα), recombinant protein (human, UniProt P15328 25-233).
T5 construct: Bought recombinant proteins (His-tagged, or biotinylated via Avi-tag, e.g. AcroBiosystems FO1-H82E2, F01-H52H1); also called hFOLR1; huFOLR1
T5 sequence (P15328 25-233 limits assumed): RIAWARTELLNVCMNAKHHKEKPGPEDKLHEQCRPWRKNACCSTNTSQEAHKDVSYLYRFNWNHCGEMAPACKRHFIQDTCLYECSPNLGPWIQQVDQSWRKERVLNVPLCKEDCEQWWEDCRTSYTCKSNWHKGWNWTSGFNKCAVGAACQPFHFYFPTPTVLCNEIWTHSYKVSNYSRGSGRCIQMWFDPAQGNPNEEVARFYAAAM
Nature of the assay: BLI, FRα on AR2G biosensors, 1:1 model. The procedure, abridged:
(§3)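 Binding kinetics measured by bio-layer interferometry. Kinetic constants and KD derived by fitting a 1:1 binding model.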
As usually defined, the Kd is the equilibrium constant for the complex coming apart. What is called koff is the first-order rate constant of dissociation. A word on the kon: it is the rate constant with which the complex forms. Turning to B1, the Kd is 63.7 nM, the koff was found to be 0.0149 s⁻¹ and the kon turned out to be 233000 M⁻¹ s⁻¹.

With B2, the Kd came to 274 nM, the koff turned out to be 0.0276 s⁻¹ and the kon amounted to 101000 M⁻¹ s⁻¹.

As for B3, the Kd amounted to 169 nM, the koff came out at 0.159 s⁻¹ and the kon was 938000 M⁻¹ s⁻¹.

Another assay has as its target T6, mouse folate receptor alpha (mFRα), recombinant protein (mouse, UniProt P35846 25-232).
T6 construct: Bought recombinant proteins (e.g. biotinylated, Acro Biosystems FO1-M82E9); also called mFOLR1; Ms FOLR1
Description: BLI, FRα on AR2G biosensors, 1:1 model. The procedure, abridged:
as §3
(In BLI a coated tip is dipped into the sample, and binding shifts an interference pattern.)
Take B1: the Kd stood at 2.97 nM, the koff was found to be 0.00393 s⁻¹ and the on-rate (kon) was determined as 1.32e+06 M⁻¹ s⁻¹.

As for B2, the Kd was determined as 23.8 nM, the koff came to 0.00467 s⁻¹ and the kon amounted to 203000 M⁻¹ s⁻¹.

Take B3: the Kd stood at 2.59 nM, the koff was 0.00297 s⁻¹ and the kon stood at 1.15e+06 M⁻¹ s⁻¹.

The values are drawn from patent US20250304677A1 (VIB VZW, published 2025).
